Results: patent US9744220B2, “Compositions and methods for treating inflammatory diseases” (priority 2013, dated 2017)
“Also recorded” adds a separate entry of the source.

Tests used:
[1] = test system: cardiac Sca-1+ cells; experiment: Intravenous sPDNF into naïve mice, Sca-1 staining of heart sections; type: in vivo
[2] = test system: heart of mice with chronic Chagas cardiomyopathy (CCC); experiment: Chronic Chagas cardiomyopathy (CCC) mice, heart histology (H&E, Masson-Trichrome); type: in vivo; conditions: for cardiac fibrosis: IV, Masson-Trichrome
Protocol: (§1) FIG. 3A depicts in vivo experimental design, groups, treatment and timeline for the infective and anti-inflammatory effects of sPDNF. C57BL/6 mice (7 per group) were injected intraperitoneally with T cruzi Colombian strain (8×10^2 per mouse) and, four months later, intravenously with PBS (vehicle) or sPDNF (1 mg/kg body weight) at 0, 3, and 24 hours, weekly for 3 weeks. Mice were sacrificed 50 days after the first set of IV sPDNF treatment. FIG. 3B are images of heart (ventricle) paraffin-embedded, sectioned, and stained with H&E. Arrows indicate foci of inflammatory infiltrates, which were abundant in sham-treated (IV PBS) CCC mice and rare in IV sPDNF-treated CCC mice. Similar histology was found in other tissue sections and in a distinct set of sPDNF-treated and PBS-sham mice.
Same mice and experimental protocol as described in FIG. 3A were used except that paraffin-embedded heart sections were stained with Masson-Trichrome to visualize collagen in fibrotic areas (blue) and viable muscle fibers (red). FIGS. 4A and 4B display sections of atria of mice with CCC administered IV PBS or IV sPDNF, respectively. FIG. 4C is a graph showing the amount of cardiac fibrosis, as determined using ImageJ software (NIH) in four distinct sections of atria and ventricles. Relative cardiac fibrosis is defined as the ratio of blue pixels to total pixels (blue+red) normalized to corresponding areas of the heart of uninfected mice set at 1.0 (dotted line); **, P<0.01, ns, not significant relative uninfected hearts.

[3] = test system: cardiac inflammatory and fibrogenic markers; experiment: Chronic Chagas cardiomyopathy (CCC) mice, transcripts by qPCR; type: in vivo
Protocol: as §1
FIG. 5A is a graph showing transcript expression for inflammatory cytokines in hearts of the infected mice, as assessed by qPCR for the indicated transcripts, which were normalized to HPRT and made relative to uninfected vehicle-treated mice. Values for IFN-λ were reduced by 3-fold; **, p<0.01. FIG. 5B is a graph showing transcript expression for inflammatory cell markers in hearts of the infected mice, as assessed by qPCR for the indicated transcripts, which were normalized to HPRT and made relative to uninfected vehicle-treated mice. Values for CD8, and CD4 were reduced by 15-, and 1.5-fold, respectively; **, p<0.01, ***, p<0.001. FIG. 5C is a graph showing transcript expression for inflammatory cytokines in hearts of the infected mice, as assessed by qPCR for the indicated transcripts, which were normalized to HPRT and made relative to uninfected vehicle-treated mice. FIG. 5D is a graph showing percent reduction of cardiac inflammatory markers of mice chronically infected with T cruzi, using data from FIGS. 5A-5C. Baseline represents mean transcripts of uninfected mice. FIG. 5E is a graph showing expression of TSG-6 transcripts in heart and liver of T cruzi infected mice. Heart (ventricles+atria) and liver of mice (5 per group) infected acutely (25-day post injection) (Acute) or chronically (6-months PI, CCC, same as in FIG. 3) with T cruzi Colombian were assessed for TSG-6 transcript by qPCR and plotted relative to uninfected mice set at 1.0; **, P<0.001. […] is a graph showing TSG-6 serum levels assessed by ELISA (MyBiosource) in mice uninfected (Un-Inf) or bearing CCC and injected IV with vehicle PBS or sPDNF following the protocol described in FIG. 3. Bars represent the average (±SD) of three mice per point; two separate experiments, **, P<0.01.

[4] = test system: MCP-1 and FKN receptors CCR2 and CX3CR1; experiment: IV sPDNF into naïve mice, chemokine receptor transcripts by qPCR; type: in vivo
Protocol: For the results depicted in FIGS. 12A and 12B, mice (3/group) were injected with various single doses of IV sPDNF, and sacrificed 3 hr post-injection. FIG. 12A is a graph showing the mRNA expression of MCP-1 receptor CCR2, as quantified by qPCR in the heart and liver. FIG. 12B is a graph showing the mRNA expression of FKN receptor CX3CR1, as quantified by qPCR in the heart and liver. […] For the results depicted in FIGS. 12C and 12D, mice (3/group) were injected with vehicle (Veh) or multiple doses of IV sPDNF (25 μg per injection) at 0, 3 and 24 hr, and sacrificed 24 hr after the last injection. FIG. 12C is a graph showing mRNA expression of CCR2, as quantified by qPCR in the liver, colon and heart (ventricles and atria). FIG. 12D is a graph showing mRNA expression of CX3CR1, as quantified by qPCR in the liver, colon and heart (ventricles and atria). Notice a statistically significant upregulation of MCP-1 and FKN receptors in the heart and liver 48-h after the start of three doses of IV sPDNF spaced within a 24 h span; *P<0.05, and ** P<0.01
One of the functions of MCP-1 and FKN is to attract cells expressing their receptors (CCR2 and CX3CR1, respectively) to tissue sites. […] Thus, sPDNF-induced MCP-1 and FKN promoted migration of cells bearing CCR2 and CX3CR1 receptors.
RNA was isolated from Trizol lysates of cell monolayers or liquid nitrogen snap frozen tissue samples dissociated by a Tissue-Tearor mechanical homogenizer (Biospec Products, Inc.). cDNA was synthesized using the Quantitect Reverse Transcription kit (Qiagen) according to manufacturer's instructions. Chemokine and chemokine receptor transcripts were amplified using specific primers and normalized to HPRT using SYBR Green (Qiagen), and, if needed, expressed relative to control-unstimulated cells. The following primers were used: […]
sPDNF was diluted in sterile endotoxin-free PBS (200 μl) and injected via the tail vein into 6-8 week old female C57BL/6 mice. Mice receiving single IV injections of 150 μg sPDNF per mouse were sacrificed at 3, 6, 9, and 12 hr post-injection, or various doses of sPDNF (100 ng-150 μg) and sacrificed 3 hr post-injection. Mice receiving multiple injections of sPDNF or PBS vehicle control (0, 3, and 24 hr, 100 μg per injection) were sacrificed 24 hr after the last injection (i.e., 48 hr after the first injection). Mice were perfused with PBS and organs harvested as described above.

[5] = Toxicity in RAG-2-/- deficient mice; type: in vivo; conditions: highly susceptible to endotoxin shock
[6] = target: TrkB (Homo sapiens, UniProt Q16620); conditions: previous finding; cited from earlier work
Chain of TrkB (Q16620 32-822, species assumed): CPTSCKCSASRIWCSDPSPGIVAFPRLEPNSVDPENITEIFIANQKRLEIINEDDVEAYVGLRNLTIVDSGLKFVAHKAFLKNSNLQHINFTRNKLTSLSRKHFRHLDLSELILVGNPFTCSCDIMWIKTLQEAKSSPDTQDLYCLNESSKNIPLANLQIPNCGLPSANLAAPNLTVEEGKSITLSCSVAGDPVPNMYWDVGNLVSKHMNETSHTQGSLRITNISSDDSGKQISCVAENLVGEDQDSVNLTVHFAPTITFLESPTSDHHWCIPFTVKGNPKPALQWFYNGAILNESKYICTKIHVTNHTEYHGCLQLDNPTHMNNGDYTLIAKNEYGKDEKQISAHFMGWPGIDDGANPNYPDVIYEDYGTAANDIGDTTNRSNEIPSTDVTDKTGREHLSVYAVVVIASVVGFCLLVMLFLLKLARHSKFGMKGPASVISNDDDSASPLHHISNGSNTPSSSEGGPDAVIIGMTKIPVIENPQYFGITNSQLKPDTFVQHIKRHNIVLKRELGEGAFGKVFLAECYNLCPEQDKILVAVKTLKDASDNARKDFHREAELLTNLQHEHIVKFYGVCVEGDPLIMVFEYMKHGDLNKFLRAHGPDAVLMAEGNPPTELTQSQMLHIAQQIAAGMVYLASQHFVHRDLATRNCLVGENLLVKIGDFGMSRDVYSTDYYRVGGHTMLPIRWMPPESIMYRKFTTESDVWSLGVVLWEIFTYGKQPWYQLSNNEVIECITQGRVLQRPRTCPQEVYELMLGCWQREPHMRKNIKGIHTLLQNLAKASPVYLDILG

[7] = hearts of infected (CCC) mice, FIG. 5B
[8] = IV at 0, 3 and 24 hr, measured 24 hr after the last injection

B1: sPDNF: N-terminal short-form of T cruzi PDNF that contains Trk-binding sites, recombinant; amino acids 1-588 of SEQ ID NO: 2; JR-100 is the commercial name (protein, listed as Trypanosoma cruzi)
chain: MGKTVVVASRMFWLMFFVPLLLAICPSEPAYALAPGSSRVELFKRKNSTVPFEDKAGKVTERVVHSFRLPALVNVDGVMVAIADARYDTSNDNSLIDTVAKYSVDDGETWETQIAIKNSRVSSVSRVVDPTVIVKGNKLYVLVGSYYSSRSYWSSHGDARDWDILLAVGEVTKSTAGGKITASIKWGSPVSLKKFFPAEMEGMHTNQFLGGAGVAIVASNGNLVYPVQVTNKKKQVFSKIFYSEDDGKTWKFGKGRSDFGCSEPVALEWEGKLIINTRVDWKRRLVYESSDMEKPWVEAVGTVSRVWGPSPKSNQPGSQSSFTAVTIEGMRVMLFTHPLNFKGRWLRDRLNLWLTDNQRIYNVGQVSIGDENSAYSSVLYKDDKLYCLHEINTDEVYSLVFARLVGELRIIKSVLRSWKNWDSHLSSICTPADPAASSSESGCGPAVTTVGLVGFLSGNASQNVWEDAYRCVNASTANAERVRNGLKFAGVGGGALWPVSQQGQNQRYRFANHAFTLVASVTIHEAPRAASPLLGASLDSSGGKKLLGLSYDEKHQWQPIYGSTPVTPTGSWETGKRYHLVLTMANKI
For B1, which “cardiac Sca-1+ cells” value [1] is on record?
Its value is “expanded”.

What about the “inflammatory infiltrates in the heart” value ([2]; IV 1 mg/kg at 0, 3, 24 hours weekly for 3 weeks, 1 mg/kg) of the same molecule?
The value was “dramatic reduction and rare”.

And the cardiac fibrosis [2]?
The cardiac fibrosis was “reduced”.

What about the cardiac fibrosis ([2]; listed as PDNF fragment) of the same molecule?
Its cardiac fibrosis is “nearly eliminated”.

What about the “expression of anti-inflammatory TSG-6 in the heart and liver” value ([3]; CCC mice, IV) of the same molecule?
The value was “increased expression; also recorded: restored TSG-6 transcript to levels seen in acutely infected mice”.

What about the “transcripts of cardiac inflammatory and fibrogenic markers” value ([3]; CCC mice, IV) of the same molecule?
Its value is “global decrease”.

What about the “IFN-λ transcript values reduced” value ([3]; hearts of infected (CCC) mice, FIG. 5A) of the same molecule?
Its value is 3 fold.

And the “CD4 transcript values reduced” value [3, 7]?
The value was 1.5 fold.

What about the “CD8 transcript values reduced” value [3, 7] of the same molecule?
Its value is 15 fold.

What about the “cardiac inflammation (CD8 lymphocyte infiltrates, pro-inflammatory cytokines such as tumor necrosis factor-α)” value ([3]; model of chronic Chagas disease, intravenous) of the same molecule?
Its value is “reduced”.

And the “CCR2 in the liver and heart (ventricle and atrium)” value [4, 8]?
The value was “significant increase”.

And the “CX3CR1 in the liver and heart (ventricle and atrium)” value [4, 8]?
Its value is “significant increase”.

What about the “CCR2 transcripts in cardiac and hepatic tissues” value ([4]; single IV dose (150 μg)) of the same molecule?
The value was “did not increase”.

What about the “CX3CR1 transcripts in cardiac and hepatic tissues” value ([4]; single IV dose (150 μg)) of the same molecule?
The value was “did not increase”.

And the toxicity [5]?
The toxicity was “non-toxic”.

What about the “recognition of TrkB” value [6] of the same molecule?
The value was “not recognized”.
